Test results as given in US20100167997A1, “METHOD FOR STIMULATION COLLAGEN SYNTHESIS AND/OR KGF EXPRESSION” (ATYR PHARMA, INC., priority 2005, published 2010).

Key:
[1] = tested on: collagen; assay: RT-PCR analysis of collagen transcript in foreskin fibroblast cells; format: cell-based
Method: (§1) In order to measure the collagen transcript RNA induced by the AIMP1, foreskin fibroblast cells (5×10^4 cells/well; obtained from MTT; accession number: MC1232) were cultured in 10% serum-containing DMEM medium on a 6-well plate for 12 hours and then cultured in serum-free medium for about 3 hours. Next, the cultured cells were treated with the AIMP1 (SEQ ID NO: 1) at varying AIMP1 concentrations of 0, 20, 50, 100 and 200 nM for 6 hours (RT-PCR) or 12 hours (Western blot).
The cells treated with the AIMP1 at varying concentrations in Example <1-1> were collected and dissolved in TRIzol (invitrogen). 10% by weight of chloroform was added to the cell lysate, and mixed well. The mixture was centrifuged at 12,000 g for 15 minutes and the supernatant was collected. Ethanol was added to the collected supernatant to a final concentration of 70%. Then, the supernant was centrifuged at 26,000 g for 5 minutes and the precipitant was collected. The precipitant was dried and dissolved in sterilized distilled water, and the total RNA was extracted. 3 μg of the total RNA was used to prepare cDNA. Then, the cDNA was amplified by PCR using collagen-specific primers (SEQ ID NO: 4 and SEQ ID NO: 5). At this time, for use as a control group, the cDNA was subjected to PCR using GADPH-specific primers (SEQ ID NO: 6 and SEQ ID NO: 7). The PCR reaction consisted of: pre-denaturation of the template DNA at 95° C. for 5 min, followed by 25 cycles of 1 min at 95° C., 1 min at 52° C. and 1 min at 72° C., and then a final extension for 5 min at 72° C.
(§2) Foreskin fibroblast cells (5×10^4 cells/well) were cultured in 10% serum-containing DMEM medium on a 6-well plate for 12 hours, and then, cultured in serum-free medium for about 3 hours. Next, the cultured cells were treated with 100 nM of the AIMP1 at various time intervals (0, 2, 4, 6, 12 and 24 hours).
(§3) Foreskin fibroblast cells (5×10^4 cells/well) were cultured in 10% serum-containing DMEM medium on a 6-well plate about 12 hours, and then, cultured in serum-free medium for about 3 hours. Then, the cultured cells were treated with 100 nM of the N-terminal and C-terminal fragments of the AIMP1 prepared in Reference Example 1, at various time intervals of 0, 1, 2, 4, and 6 hours. Then, RT-PCR was performed in the same manner as in Example <1-2> using each of collagen-specific primers (SEQ ID NO: 4 and SEQ ID NO: 5), KGF-specific primers (SEQ ID NO: 8 and SEQ ID NO: 9) and GADPH-specific primers (SEQ ID NO: 6 and SEQ ID NO: 7).
(§4) Foreskin fibroblast cells (5×10^4 cells/well) were cultured in 10% serum-containing DMEM medium on a 6-well plate for 12 hours and then cultured in serum-free medium for about 3 hours. Next, the cultured cells were treated with each of the N-terminal fragments (SEQ ID NOS: 12, 13 and 14) and C-terminal fragment (SEQ ID NO: 15) of AIMP1 prepared in Reference Example 2 at an concentration of 100 nM for 2 hours and 6 hours, respectively. The treated cells were subjected to RT-PCR using collagen-specific primers (SEQ ID NOS: 4 and 5), KGF-specific primers (SEQ ID NOS: 8 and 9) and GADPH-specific primers (SEQ ID NOS: 6 and 7) in the same manner as in Example <1-2>.

[2] = tested on: collagen; assay: Western blot analysis of collagen (anti-collagen I antibody) in foreskin fibroblast cells; format: cell-based
Method: as §1
The cells treated with the AIMP1 at varying AIMP1 concentrations in Example <1-1> were collected and lysed in a cell lysis buffer (50 mM HEPES, pH 7.5, 150 mM NaCl, 10% glycerol, 5 mM EGTA, 1 mM sodium orthovanadate, 10 mM NaF, 12 mM b-glycerophosphate, 1 mM DTT, 1 mM PMSF, […] aprotinin, and 1% NP40). Lysed cells were centrifuged at 26,000 g for 15 minutes and the cell extract was isolated. 30 μg of the cell extract was separated by 8% SDS-PAGE and immunoblotted with an anti-collagen I antibody (Abcam) according to any conventional method known in the art. As a control group, an anti-tubulin antibody (Sigma) was used.
as §2
Foreskin fibroblast cells (5×10^5 cells/well) were cultured in 10% serum-containing DMEM medium on a 6-well plate for 48 hours and then cultured in serum-free medium for about 3 hours. Next, the cultured cells were treated with each of the AIMP1 (SEQ ID NO: 1) and the AIMP1 N-terminal fragments (SEQ ID NOS: 2 and 12) at a concentration of 200 nM for 12 hours. As a control group, cells without treatment were used.
The cells treated with each of the AIMP1 and its N-terminal fragments and the control cells were collected at the indicated time and subjected to Western blot analysis in the same manner as in Example <1-3>.

[3] = tested on: collagen; assay: Collagen immunofluorescent staining of wound site in wild-type and AIMP1-deficient mice; format: in vivo, mouse; settings: WT and AIMP1-/- mice; 4 μg applied on wound site twice a day until 3 days after wounding; FIG. 3
Text: By the gene trap method known in the art (Zambrowicz, B. P., et al., Nature 392:608-611, 1998; Kim J Y et al., Proc. Natl. Acad. Sci. USA 99:7912-7916, 2002), a mutation in the AIMP1 gene of a male C57BL6 mouse was induced to prepare a AIMP1 gene deficient homozygous mouse (AIMP1^−/− mouse, Ho) (Park S. G. et al., Am. J. Pathol., in press: 2005). Then, on the back of each of the 8-week-old homozygous mouse and wild-type mouse (AIMP1^+/+ mice, WT), a circular cut-off window with a diameter of 0.5 cm was made with scissors. The wound site was left to stand without dressing. 4 μg of the AIMP1 prepared in Reference Example 1 was dissolved in 5 μl of 20% glycerol-containing PBS and applied on the wound site. The AIMP1 applied twice a day until 3 days after wounding. A control group (AIMP1-untreated group) was treated with 20% glycerol-containing PBS. Then, the tissue of the wound site was isolated using scissors and fixed in 4% paraformaldehyde overnight. The fixed tissue was washed with PBS, incubated in 30% sucrose solution for 4 hours, and then mixed with an OCT (optimal cutting temperature) compound and frozen at −70° C.
6 μm of the frozen section was attached to a silane-coated slide and washed with PBS. Then, the slide was blocked with PBS containing 0.1% tween 20 and 1% non-fat dry milk and allowed to react with an anti-collagen I antibody (Abcam) at 37° C. for 2 hours. […]

[4] = tested on: KGF; assay: RT-PCR analysis of KGF expression in foreskin fibroblast cells; format: cell-based; settings: 100 nM for 2 hours, FIG. 4
Method: From foreskin fibroblast cells treated with 100 nM of the AIMP1 for 2 hours, the total RNA was extracted in the same manner as described in Example <1-2>. Then, the extract was amplified by RT-PCR using KGF-specific primers (SEQ ID NO: 8 and SEQ ID NO: 9). The control groups were amplified using cyclin D-specific primers (SEQ ID NO: 10 and SEQ ID NO: 11) and GADPH-specific primers (SEQ ID NO: 6 and SEQ ID NO: 7), respectively. The PCR reaction consisted of: predenaturation of the template DNA at 95° C. for 5 min, followed by 25 cycles of 1 min at 95° C., 1 min at 52° C. and 1 min at 72° C., and then, a final extension for 5 min at 72° C.
as §3, §4

B1: AIMP1: ARS-interacting multi-functional protein 1, a protein consisting of 312 amino acids (SEQ ID NO: 1) (protein, listed as Homo sapiens)
chain: MANNDAVLKRLEQKGAEADQIIEYLKQQVSLLKEKAILQATLREEKKLRVENAKLKKEIEELKQELIQAEIQNGVKQIAFPSGTPLHANSMVSENVIQSTAVTTVSSGTKEQIKGGTGDEKKAKEKIEKKGEKKEKKQQSIAGSADSKPIDVSRLDLRIGCIITARKHPDADSLYVEEVDVGEIAPRTVVSGLVNHVPLEQMQNRMVILLCNLKPAKMRGVLSQAMVMCASSPEKIEILAPPNGSVPGDRITFDAFPGEPDKELNPKKKIWEQIQPDLHTNDECVATYKGVPFEVKGKGVCRAQTMSNSGIK
- synthesis of collagen (RT-PCR), varying concentrations ([1]; 0, 20, 50, 100 and 200 nM for 6 hours, FIG. 1 upper): stimulated the synthesis of collagen in fibroblast cells in dose-dependent manners
- synthesis of collagen (RT-PCR), various time intervals ([1]; 100 nM, 0, 2, 4, 6, 12 and 24 hours, FIG. 2 upper): stimulated the synthesis of collagen in fibroblast cells in time-dependent manners
- synthesis of collagen, protein levels (Western blot), varying concentrations ([2]; 0, 20, 50, 100 and 200 nM for 12 hours, FIG. 1 bottom): stimulated the synthesis of collagen in fibroblast cells in dose-dependent manners
- synthesis of collagen, protein levels (Western blot), various time intervals ([2]; 100 nM, 0, 2, 4, 6, 12 and 24 hours, FIG. 2 bottom): stimulated the synthesis of collagen
- synthesis of collagen, protein levels (Western blot), compared with cells without treatment ([2]; 200 nM for 12 hours, FIG. 7): more stimulated
- amount of collagen at wound site (immunofluorescence) [3]: further increased
- expression of KGF (RT-PCR) [4]: increased
